From US20250333521A1 (SYNTHEKINE, published 2025) come the findings set out here.

Where a chain is given by its changes, count along the chain named.

The test deals with T1, human IL10Rb ECD antigen (human, UniProt Q08334 20-220).
T1 construct: Coat of the panning and PE-ELISA plates; also called hIL10Rb extracellular domain; IL10Rb (plate coat)
T1 sequence: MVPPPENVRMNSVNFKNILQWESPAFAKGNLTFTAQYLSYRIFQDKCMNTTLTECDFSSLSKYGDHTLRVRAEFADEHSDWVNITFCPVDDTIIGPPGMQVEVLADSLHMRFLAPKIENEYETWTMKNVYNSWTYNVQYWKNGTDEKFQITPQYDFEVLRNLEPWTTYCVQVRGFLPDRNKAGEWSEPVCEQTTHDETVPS
The test can be described thus: periplasmic extract ELISA of phage clones on antigen-coated plate. As for the experimental part:
Upon completion of the biopanning of Example 3, three 96-well plates of individual phage clones were isolated in order to perform periplasmic extract ELISA (PE-ELISA) on IL10Rb coated plates to identify positive VHH binders that selectively bound IL10Rb. A 96-well plate was coated with IL10Rb and PBS under the same conditions. Next, wells were blocked at 37° C. for 1 h. Then, 100 μl of extracted antibodies was added to each well and incubated for 1 h. Subsequently, 100 μl of anti-tag polyclonal antibody conjugated to HRP was added to each well and incubated at 37° C. for 1 h. Plates were developed with TMB substrate. The reaction was stopped by the addition of H2SO4. Absorbance at 450 nm was read on a microtiter plate reader. Antibodies with absorbance of the antigen-coated well at least threefold greater than PBS-coated control are VHHs that specifically bind to IL10Rb. Positive clones were sequenced, and sequences analyzed to identify unique clonotypes

B1: hIL10Rb_VHH-4 (VHH)
VHH: QVQLQESGGGSIQAGGSLRLSCAASRYLYSIDYMAWFRQSPGKEREPVAVIYTASGATFYPDSVKGRFTISQDNAKMTVYLQMNSLKSEDTAMYYCAAVRKTDSYLFDAQSFTYWGQGTQVTVSS
notes: Periplasmic extract of the phage clone (pMECS, HA/His) as tested in PE-ELISA; not shown: HA/His tag of the pMECS phagemid
In the case of B1, the binding result is reported as “binds”.

B2: hIL10Rb_VHH-6 (VHH)
VHH: B1 VHH with R19T, Y27D, I31T, D32N, M34V, P47A, F59L, P61S, D103G, S104H
notes: as for B1
As to B2, the binding result is recorded as “binds”.
